Laboratory results: patent publication US20240383984A1 (Genentech, published 2024)

Key:
[1] = molecular target: T1, human FcRH5 (full-length, on cells) (human, UniProt Q96RD9 16-977); assay: cell-based or functional assay
T1 sequence: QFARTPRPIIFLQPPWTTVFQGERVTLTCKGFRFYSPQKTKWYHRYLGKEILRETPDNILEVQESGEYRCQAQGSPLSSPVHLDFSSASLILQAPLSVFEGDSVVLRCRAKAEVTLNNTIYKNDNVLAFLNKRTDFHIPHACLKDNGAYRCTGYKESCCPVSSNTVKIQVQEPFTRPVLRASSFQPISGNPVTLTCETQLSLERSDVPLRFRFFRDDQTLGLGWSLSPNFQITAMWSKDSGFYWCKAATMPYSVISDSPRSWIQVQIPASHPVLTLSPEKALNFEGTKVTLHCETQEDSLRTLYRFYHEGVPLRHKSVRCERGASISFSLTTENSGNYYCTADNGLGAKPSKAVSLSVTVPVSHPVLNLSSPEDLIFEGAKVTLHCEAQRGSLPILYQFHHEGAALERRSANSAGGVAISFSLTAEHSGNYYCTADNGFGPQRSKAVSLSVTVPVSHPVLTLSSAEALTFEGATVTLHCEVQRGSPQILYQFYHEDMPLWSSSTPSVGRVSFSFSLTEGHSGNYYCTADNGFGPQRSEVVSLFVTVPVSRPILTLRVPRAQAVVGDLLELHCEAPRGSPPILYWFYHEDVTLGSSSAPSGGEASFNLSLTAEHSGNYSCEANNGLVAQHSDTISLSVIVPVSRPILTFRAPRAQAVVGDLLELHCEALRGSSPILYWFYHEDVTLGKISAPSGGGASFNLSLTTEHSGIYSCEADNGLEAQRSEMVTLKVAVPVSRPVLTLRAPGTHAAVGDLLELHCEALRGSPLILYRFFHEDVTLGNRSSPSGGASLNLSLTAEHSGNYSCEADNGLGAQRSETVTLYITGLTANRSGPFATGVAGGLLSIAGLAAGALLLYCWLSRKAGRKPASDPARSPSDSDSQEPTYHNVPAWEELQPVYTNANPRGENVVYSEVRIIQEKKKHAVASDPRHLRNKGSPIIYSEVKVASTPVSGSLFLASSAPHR

293-FcRH5-DEL = molecular target: T2, 293-FcRH5-DEL (human, UniProt Q96RD9); assay: flow cytometry on 293 cells with domain 9-deleted FcRH5, PE-labelled secondary
T2 construct: domain 9 deletion, expressed on 293 cells
T2 sequence (receptor, looked up): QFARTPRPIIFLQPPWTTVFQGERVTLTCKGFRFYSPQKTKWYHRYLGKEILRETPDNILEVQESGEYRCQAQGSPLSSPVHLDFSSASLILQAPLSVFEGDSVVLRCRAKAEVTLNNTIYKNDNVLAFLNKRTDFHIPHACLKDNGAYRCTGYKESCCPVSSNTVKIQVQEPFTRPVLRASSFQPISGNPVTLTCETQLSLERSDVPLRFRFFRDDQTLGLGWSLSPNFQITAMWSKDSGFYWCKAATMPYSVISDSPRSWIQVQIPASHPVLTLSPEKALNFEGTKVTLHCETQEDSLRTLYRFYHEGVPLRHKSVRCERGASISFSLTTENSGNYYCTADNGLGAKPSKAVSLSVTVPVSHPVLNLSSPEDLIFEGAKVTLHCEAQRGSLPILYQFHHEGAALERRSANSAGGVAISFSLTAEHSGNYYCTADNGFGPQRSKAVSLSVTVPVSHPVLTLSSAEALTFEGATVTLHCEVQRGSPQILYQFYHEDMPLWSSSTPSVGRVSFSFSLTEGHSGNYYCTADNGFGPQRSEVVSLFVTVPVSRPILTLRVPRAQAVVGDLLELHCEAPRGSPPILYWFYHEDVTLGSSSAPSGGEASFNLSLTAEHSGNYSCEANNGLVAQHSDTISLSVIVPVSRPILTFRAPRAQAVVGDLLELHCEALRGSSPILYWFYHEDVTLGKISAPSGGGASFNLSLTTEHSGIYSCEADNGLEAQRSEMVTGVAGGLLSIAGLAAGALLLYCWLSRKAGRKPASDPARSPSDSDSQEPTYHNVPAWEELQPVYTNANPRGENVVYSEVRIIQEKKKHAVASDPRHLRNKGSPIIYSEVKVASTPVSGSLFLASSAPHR

[2] = molecular target: T3, cynomolgus FcRH5 protein fragment (soluble) (cynomolgus monkey); assay: SPR (BIACORE), TDB captured as ligand, Cyno FcRH5 as analyte, 25 °C, 1:1 binding model
T3 construct: whole entry named; also called Cyno FcRH5 (BIACORE analyte)
T3 chain: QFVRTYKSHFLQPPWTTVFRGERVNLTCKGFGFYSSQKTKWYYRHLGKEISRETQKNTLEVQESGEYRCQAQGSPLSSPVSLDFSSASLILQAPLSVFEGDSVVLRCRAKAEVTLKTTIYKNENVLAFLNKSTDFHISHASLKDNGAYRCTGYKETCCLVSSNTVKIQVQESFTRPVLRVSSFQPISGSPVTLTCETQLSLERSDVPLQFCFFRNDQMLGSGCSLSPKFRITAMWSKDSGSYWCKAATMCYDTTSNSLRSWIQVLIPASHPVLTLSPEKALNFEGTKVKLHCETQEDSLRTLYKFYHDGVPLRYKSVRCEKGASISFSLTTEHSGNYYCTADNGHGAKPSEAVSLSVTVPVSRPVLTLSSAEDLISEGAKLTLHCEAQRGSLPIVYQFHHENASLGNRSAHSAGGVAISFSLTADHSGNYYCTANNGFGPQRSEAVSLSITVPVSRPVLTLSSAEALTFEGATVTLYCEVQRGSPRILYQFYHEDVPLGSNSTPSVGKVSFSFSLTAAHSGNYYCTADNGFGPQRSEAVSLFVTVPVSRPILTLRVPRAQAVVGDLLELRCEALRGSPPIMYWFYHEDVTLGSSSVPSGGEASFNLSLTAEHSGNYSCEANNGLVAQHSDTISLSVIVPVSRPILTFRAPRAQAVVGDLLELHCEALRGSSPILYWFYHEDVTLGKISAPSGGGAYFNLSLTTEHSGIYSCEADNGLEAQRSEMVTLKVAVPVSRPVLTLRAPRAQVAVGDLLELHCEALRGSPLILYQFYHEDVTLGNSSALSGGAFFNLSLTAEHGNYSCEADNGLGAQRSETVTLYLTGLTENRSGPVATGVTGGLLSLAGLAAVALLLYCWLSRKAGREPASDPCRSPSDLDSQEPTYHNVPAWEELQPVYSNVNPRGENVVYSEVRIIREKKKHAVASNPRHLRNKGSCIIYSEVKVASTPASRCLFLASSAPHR

binding result (293-FcRH5-DEL): no binding
Kd [2]: 6.76 nM
koff [2]: 0.000847 s⁻¹
kon [2]: 125000 M⁻¹ s⁻¹
B1: 1G7.v85/38E4.v1 TDB (bispecific antibody, V domains shown)
VH 1: EVQLVESGPGLVKPSETLSLTCTVSGFSLTRFGVHWVRQPPGKGLEWLGVIWRGGSTDYNAAFVSRLTISKDNSKNQVSLKLSSVTAADTAVYYCSNHYYGSSDYALDNWGQGTLVTVSS
VL 1: DIQMTQSPSSLSASVGDRVTITCKASQDVRNLVVWFQQKPGKAPKLLIYSGSYRYSGVPSRFSGSGSGTDFTLTISSLQPEDFATYYCQQHYSPPYTFGQGTKVEIK
VH 2: EVQLVQSGAEVKKPGASVKVSCKASGFTFTSYYIHWVRQAPGQGLEWIGWIYPENDNTKYNEKFKDRVTITADTSTSTAYLELSSLRSEDTAVYYCARDGYSRYYFDYWGQGTLVTVSS
VL 2: DIVMTQSPDSLAVSLGERATINCKSSQSLLNSRTRKNYLAWYQQKPGQSPKLLIYWTSTRKSGVPDRFSGSGSGTDFTLTISSLQAEDVAVYYCKQSFILRTFGQGTKVEIK
notes: knob-into-hole TDB; also called 1G7.v85 TDB; 1G7.v85 (TDB format)
killing of 293-FcRH5-PD-L1 cells by primed CD8+ cells, TDB alone, EC50 [1]: 0.63 ng/mL
killing of 293-FcRH5-PD-L1 cells, with anti-PD-1 antibody (pembrolizumab), EC50 [1]: 0.4 ng/mL
killing of 293-FcRH5-PD-L1 cells, with anti-PD-L1 antibody, EC50 [1]: 0.4 ng/mL
killing of MOLP-2 cells, EC50 [1]: 0.058 nM
killing of SVT2-FcRH5 cells in DMSO, IC50 [1]: 0.006 nM
killing of SVT2-FcRH5 cells in buffer, IC50 [1]: 0.007 nM
killing of SVT2-FcRH5 cells with 0.1 µM Dex, IC50 [1]: 0.016 nM
killing of plasma cells (PCs), median EC50 [1]: 25 ng/mL
